Results taken from paper PMC7886143.

Target: PfPDI8 (PF3D7_0827900), 3xV5-tagged (P. falciparum (3D7))
Assay: co-IP

other: 2 fold
Substance: PfBiP, Hsp70 Binding immunoglobulin Protein (natural protein)
